The text below walks through data of patent publication US20110223127A1 (NOXXON PHARMA, published 2011).

The target of the assay is T1, human [^125J]-SDF-1α (human, UniProt P48061 22-89, 125J (iodine-125) label, position not stated).
T1 construct: Bought from PerkinElmer; also called radiolabelled human SDF-1; CXCL12
Nature of the assay: radioligand binding of human [125J]-SDF-1 to CHO cells expressing human CXCR4, scintillation counting (total binding, cpm); the blocker varied is the nucleic acid Spiegelmer 192-A10-001, preincubated with the ligand. Here is the method:
For binding assays CXCR4-expressing cells were seeded into polylysine-coated 24-well plates at a cell density of 1×10⁵ cells/well and cultivated overnight at 37° C. and 5% CO₂ in CHO-Ultra medium (Cambrex, Verviers, Belgium) containing 50 units/ml penicillin, 50 μg/ml streptomycin and 0.5 mg/ml geneticin.
For the binding experiment, the medium was removed and the cells were washed once with Hanks balanced salt solution, additionally containing 20 mM HEPES, 1 mg/ml bovine serum albumin, 0.1 mg/ml bacitracin (HBB). Then the cells were incubated in 0.2 ml HBB for 1 h at room temperature together with […] [¹²⁵J]-SDF-1 (PerkinElmer, Rodgau, Germany) and varying concentrations of Spiegelmer.
Non-specific binding was determined by adding unlabeled human SDF-1 (R & D Systems, Wiesbaden, Germany) to a final concentration of 0.5 μM to several wells.

T1 sequence (P48061 22-89): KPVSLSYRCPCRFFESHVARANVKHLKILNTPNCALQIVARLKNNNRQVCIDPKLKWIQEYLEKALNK

B1: human CXCR4-receptor (receptor, UniProt P61073 1-352, looked up)
chain: MEGISIYTSDNYTEEMGSGDYDSMKEPCFREENANFNKIFLPTIYSIIFLTGIVGNGLVILVMGYQKKLRSMTDKYRLHLSVADLLFVITLPFWAVDAVANWYFGNFLCKAVHVIYTVNLYSSVLILAFISLDRYLAIVHATNSQRPRKLLAEKVVYVGVWIPALLLTIPDFIFANVSEADDRYICDRFYPNDLWVVVFQFQHIMVGLILPGIVILSCYCIIISKLSHSKGHQKRKALKTTVILILAFFACWLPYYIGISIDSFILLEIIKQGCEFENTVHKWISITEALAFFHCCLNPILYAFLGAKFKTSAQHALTSVSRGSSLKILSKGKRGGHSSVSTESESSSFHSS
notes: whole, on cells; also called SDF-1 receptor
As to B1, the binding result is recorded as “binds”.
